# Measurements published in IntAct's records for PubMed 23624502.
# B1: Ras-related protein Rab-39A (Mus musculus), Q8BHD0 (parent)
# chain: METIWIYQFRLIVIGDSTVGKSCLLHRFTQGRFPGLHSPACDPTVGVDFFSRLLEIEPGKRIKLQLWDTAGQERFRSITRSYYRNSVGGFLVFDITNRRSFEHVKDWLEEAKMHVQPFQIVFLLVGHKCDLASQRQVSREEAERLSTDCGMKYIETSAKDATNVEESFTILTRDIYELIKKGEICIQDGWEGVKSGFVPNTVHSSEEAVKPRKECFC
# partner: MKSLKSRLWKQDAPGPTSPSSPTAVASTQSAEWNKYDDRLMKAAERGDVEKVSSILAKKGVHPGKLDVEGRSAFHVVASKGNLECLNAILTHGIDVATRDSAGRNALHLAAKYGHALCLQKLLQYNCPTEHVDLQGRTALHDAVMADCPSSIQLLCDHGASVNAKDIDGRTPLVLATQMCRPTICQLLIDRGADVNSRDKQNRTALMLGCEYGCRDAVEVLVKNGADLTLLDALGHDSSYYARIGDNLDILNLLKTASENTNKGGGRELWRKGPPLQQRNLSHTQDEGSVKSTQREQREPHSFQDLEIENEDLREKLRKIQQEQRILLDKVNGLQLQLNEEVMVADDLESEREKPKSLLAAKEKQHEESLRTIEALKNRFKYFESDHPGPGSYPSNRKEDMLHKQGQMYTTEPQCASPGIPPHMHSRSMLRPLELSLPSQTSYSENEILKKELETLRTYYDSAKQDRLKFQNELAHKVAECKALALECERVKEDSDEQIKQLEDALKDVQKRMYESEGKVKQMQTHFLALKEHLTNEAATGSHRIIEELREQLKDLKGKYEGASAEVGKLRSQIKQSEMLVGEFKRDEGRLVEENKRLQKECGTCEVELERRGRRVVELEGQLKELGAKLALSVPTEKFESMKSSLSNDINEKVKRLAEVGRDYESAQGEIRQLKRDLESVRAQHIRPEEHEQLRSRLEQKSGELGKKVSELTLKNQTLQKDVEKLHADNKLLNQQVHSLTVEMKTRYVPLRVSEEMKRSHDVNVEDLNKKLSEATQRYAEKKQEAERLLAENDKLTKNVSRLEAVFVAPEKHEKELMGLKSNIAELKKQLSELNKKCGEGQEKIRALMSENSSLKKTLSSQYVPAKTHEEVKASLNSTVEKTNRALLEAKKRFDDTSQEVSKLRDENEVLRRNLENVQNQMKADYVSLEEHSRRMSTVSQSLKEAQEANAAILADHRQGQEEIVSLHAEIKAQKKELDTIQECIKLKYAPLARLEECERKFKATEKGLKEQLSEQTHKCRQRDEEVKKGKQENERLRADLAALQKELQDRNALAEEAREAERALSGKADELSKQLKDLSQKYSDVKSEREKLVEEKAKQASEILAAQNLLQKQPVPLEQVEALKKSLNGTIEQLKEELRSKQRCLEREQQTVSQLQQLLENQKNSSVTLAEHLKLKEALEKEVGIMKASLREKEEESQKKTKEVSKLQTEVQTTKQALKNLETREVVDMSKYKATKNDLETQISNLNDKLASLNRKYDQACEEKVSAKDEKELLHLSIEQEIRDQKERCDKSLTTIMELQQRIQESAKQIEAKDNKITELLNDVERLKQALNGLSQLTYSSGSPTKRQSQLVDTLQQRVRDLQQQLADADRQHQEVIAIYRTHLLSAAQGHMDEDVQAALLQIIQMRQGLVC
# B2: Ras-related protein Rab-39B (Mus musculus), Q8BHC1 (parent)
# chain: MEAIWLYQFRLIVIGDSTVGKSCLIRRFTEGRFAQVSDPTVGVDFFSRLVEIEPGKRIKLQIWDTAGQERFRSITRAYYRNSVGGLLLFDITNRRSFQNVHEWLEETKVHVQPYQIVFVLVGHKCDLDTQRQVTRHEAEKLAAAYGMKYIETSARDAINVEKAFTDLTRDIYELVKRGEITIQEGWEGVKSGFVPNVVHSSEEVIKSERRCLC
# partner: B1 partner
# Assays:
# Settings in all cases: with Uaca
# Uaca, Q8CGB3-3 [1] = variants of: B1
# Uaca, Q8CGB3-3 [2] = variants of: B1; remark: listed apart in the source
# Uaca, Q8CGB3-3 [3] = variants of: B2; remark: listed apart in the source
# Uaca, Q8CGB3-3 [4] = variants of: B2; remark: listed apart in the source
Variant,"effect of a mutation on the interaction (Uaca, Q8CGB3-3 [1])","effect of a mutation on the interaction (Uaca, Q8CGB3-3 [2])","effect of a mutation on the interaction (Uaca, Q8CGB3-3 [3])","effect of a mutation on the interaction (Uaca, Q8CGB3-3 [4])"
METIWIYQFRLIVIGDSTVGKNCLLHRFTQGRFPGLHSPACDPTVGVDFFSRLLEIEPGKRIKLQLWDTAGQERFRSITRSYYRNSVGGFLVFDITNRRSFEHVKDWLEEAKMHVQPFQIVFLLVGHKCDLASQRQVSREEAERLSTDCGMKYIETSAKDATNVEESFTILTRDIYELIKKGEICIQDGWEGVKSGFVPNTVHSSEEAVKPRKECFC [S22N],disrupting interaction,decreasing interaction,,
MEAIWLYQFRLIVIGDSTVGKNCLIRRFTEGRFAQVSDPTVGVDFFSRLVEIEPGKRIKLQIWDTAGQERFRSITRAYYRNSVGGLLLFDITNRRSFQNVHEWLEETKVHVQPYQIVFVLVGHKCDLDTQRQVTRHEAEKLAAAYGMKYIETSARDAINVEKAFTDLTRDIYELVKRGEITIQEGWEGVKSGFVPNVVHSSEEVIKSERRCLC [S22N],,,disrupting interaction,decreasing interaction
